Experiment [1] concerns the target human NKG2D (hNKG2D) on the cell surface (human) (UniProt P26718). Briefly: flow cytometry, NKG2D-expressing cells pre-incubated with ON72 (0.3 µg), then 16F16 IgG4 (0.3 µg, competitor); legend of FIG. 9A.
Experiment [2] has the same target. Briefly: cell-based or functional assay.
For experiment [3] the target is unchanged. Briefly: flow cytometry, dose-response on NKG2D- and DAP10-expressing BaF/3 cells, y axis % of max binding.
Experiment [4] addresses recombinant NKG2D-Fc protein (R&D Systems), immobilized on a Biacore CM5 chip (human) (UniProt P26718). Briefly: SPR (Biacore), NKG2D-Fc immobilized on CM5 chip, antibody in solution.
The target in experiment [5] is human NKG2D (hNKG2D) on the cell surface (human) (UniProt P26718). Kind of experiment: flow cytometry, NKG2D/DAP10 BaF/3 cells pre-incubated with antibody, then 1 µg hFc-MICA (competitor).
Sequence of human NKG2D (hNKG2D) on the cell surface (human) (P26718 whole entry T72A): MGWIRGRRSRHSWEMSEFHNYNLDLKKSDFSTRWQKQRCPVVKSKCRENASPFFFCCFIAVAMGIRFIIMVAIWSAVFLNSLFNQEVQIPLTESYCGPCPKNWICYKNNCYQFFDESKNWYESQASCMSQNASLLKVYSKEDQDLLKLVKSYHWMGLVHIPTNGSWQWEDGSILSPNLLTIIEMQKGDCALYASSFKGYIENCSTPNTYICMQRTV
For experiment [6] the target is unchanged. The experiment is described as above. This is another data set of the same source.
Experiment [7] shares this target. Briefly: flow cytometry blocking assay on NKG2D/DAP10-expressing BaF/3 cells: pre-incubation with the antibody, then 1 µg MICA-Fc (hFc-MICA, m12, for ON72 according to paragraph 390); y axis % remaining MICA-Fc binding.
Experiment [8] shares this target. Kind of experiment: flow cytometry, NKG2D-expressing cells pre-incubated with ON72, then recombinant 16F16 (competitor).
Experiment [9] has the same target. Briefly: flow cytometry, dose-response on NKG2D- and DAP10-expressing BaF/3 cells.

“And” between values parts separate entries of the source, which are not always exact repeats. Equal values may be shown once. Read-outs that look alike come from different tables or passages of the source.

We go through one substance from patent US20100056764A1.

Sequence of recombinant NKG2D-Fc protein (R&D Systems), immobilized on a Biacore CM5 chip (human) (P26718 78-216): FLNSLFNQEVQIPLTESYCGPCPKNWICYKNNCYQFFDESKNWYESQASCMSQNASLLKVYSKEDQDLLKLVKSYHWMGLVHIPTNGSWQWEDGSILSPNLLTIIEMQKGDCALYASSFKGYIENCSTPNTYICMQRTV

The substance “ON72, commercially available murine anti-hNKG2D monoclonal antibody (Beckman Coulter Inc.)” gave a % of 16F16 binding prevented in experiment [1] of 85%. In experiment [2], the % proliferation of PBMC, stimulation CD3 0.1 + CD28 + ON72 (immobilized antibodies) turned out to be 22.9%; the % proliferation of PBMC, stimulation CD3 0.1 + ON72 (immobilized antibodies) came out at 7.12%; the % proliferation of PBMC, stimulation CD3 0.3 + CD28 + ON72 (immobilized antibodies) turned out to be 40.1%; the % proliferation of PBMC, stimulation CD3 0.3 + ON72 (immobilized antibodies) is 28.4%. In experiment [2], this substance came in with an EC50 (µg/ml), inhibition of NK cell killing of ULPB3-expressing target cells (51Cr release) of 0.065 µg/mL; a down-modulation of cell-surface NKG2D, NKG2D/DAP10 BaF/3 cells, overnight incubation of 55%; an internalization of NKG2D at 1 h, NKG2D+ lymphocytes in whole blood, 0.1 µg/ml of 50 to 75%; an internalization of NKG2D at 24 h, NKG2D+ lymphocytes in whole blood, 0.1 µg/ml of 100%. This substance also registered a half-maximal effective concentration (EC50 (read off the curve)) in experiment [3] of 0.06 nM. Further, in experiment [4], the dissociation constant (Kd) was found to be 0.17 nM, the dissociation rate constant (koff) turned out to be 0.00011 s⁻¹ and the kon was 960000 M⁻¹ s⁻¹. In [5], this substance registered a concentration for half-maximal inhibition (IC50) of 0.02 nM and a full blockade of 1 µg MICA-Fc (antibody concentration) of 0.24 nM. In experiment [6], the half-maximal inhibitory concentration (IC50) was determined as 0.019 µg/mL and the full blockade of 1 µg MICA-Fc (antibody concentration) stood at 0.54 µg/mL. Moreover, in experiment [7], the IC50 (read off the curve) amounted to 0.02 nM. The % of 16F16 binding blocked in experiment [8] was found to be 82%. Besides, in experiment [9], the 50% effective concentration (EC50) is 0.062 µg/mL and 0.048 nM.
